# Assay results as given in patent US20140287419A1, “Compositions Having Dicamba Decarboxylase Activity and Methods of Use” (priority 2013, published 2014).
# Positions count from the first letter of the chain named.
# B1: 46 (protein, listed as Rhodococcus opacus)
# chain: MARIITLEEHYLDPAIAAASAPLARELSPDFAAAYDPASGLSYTPSAQVLQDLGQRRIADMDTHGISMQVLSCLTTQQVPADVAPDLVRAANDTAAAAVRAHPDRFAAFAALPTTAPDAAATELARCIDDLGFVGTMINGRTDGEFLDAPRFDPILATAAARNVPIYLHPAVPPRATSDSNYAGLAPLVTARLQTSAWGWHQETAVHFLHLVLSGVLDRYPNLQFILGHWGEMIPFYLDRLDEALPQAVTNLDRTISDYVRENVYITPSGMFNQAQLQYCVETLGVDRILYSVDYPFIGNDGAVSFLDEANLPDEAKHQIAHQNTEKLLGL
# B2: 36 (protein, listed as Agrobacterium sp.)
# chain: MAQGKVALEEHFAIPETLQDSAGFVPGDYWTELQHRLLDIQDTRLKLMDAHGIETMILSLNAPAVQAIPDKTKAIEIARRANDALAEECAKRPNRFLAFAALPLQDPDAATQELQRCVNDLGFVGALVNGFSQEGDGQIPLYYDLPQYRPFWGEVEKLDVPFYLHPRNPLPQDSRIYDGHPWLLGPTWAFAQETAVHALRLMASGLFDEHPRLNIILGHMGEGLPYMMWRIDHRNAWVKLPPRYPAKRRFVDYFNENFHITTSGNFRTQTLIDAILEIGADRILFSTDWPFENIDHASDWFHATSIAEADRVKIGRTNARRLFKLDGR
# B3: 39 (protein, listed as Agrobacterium fabrum)
# chain: B2 chain with Y29C, N94D, Q115R, I139T, N214D
# B4: 38 (protein, listed as Variovorax paradoxus)
# chain: MAQGKIGLEEHFAIPQTLQDSAGFVPGVYWKELSSRLLDIHDGRLRQMDEHGMEMMILSLNAPAVQAVADPVKAYELAVRANDFLAEQVAKRPDRFQAFAALPMQDPEKATQELERCMSVLGFRGALVNGFSQVGTPDNVAYYDAPQYAPFWAAAERLDAPFYLHPRNPIASWAQIYEGHPWLLGPTWAFAQETAVHALRLMASGLFDRHPGLKIILGHLGEGLPYNMWRVDHRNAWVKAPKGYPAKRKLCEYFQENFYLTTSGNFRTQTLIDAMLEVGSDRILFSTDWPFENIDHASNWFNDTSISEADRKKIGRTNAMSLFKLA
# B5: 42 (protein)
# chain: MAQGKIALEEHFAIPDTLQDSAGFVPGDYWKELSARLLDIHEQRLMQMDAYGIEKMILSLNAPAVQAIPDKAKALEISRRANDFLAEQCARNPDRFLGFAALPLQDPDAATAELQRCVKTLGFVGALVNGFSQEGDGVTPLYYDLPQYRGFWAEVEKLAVPFYLHPRNPLPQDSRIYAGHPWLMGPTWAFAQETAVHALRLVGSGLFDDHPALRIILGHMGEGLPYMMWRIDNRNAWVKVAPNYPAKRRIADYFNENFYITTSGNFRTQSLVDAMLEIGADRILFSTDWPFENIDHASDWFDTATISEADRLKIGRTNAATLFNLES
# modifications: Agrobacterium radiobacter
# B6: 44 (protein, listed as Mycobacterium avium)
# chain: MARIITVEEHFQHPEVSARVAELTGPAVEGLAEFGNAFSLDPDSTARLGGNRLAHMDQVGIDVQVVSHGNGSPGTLQHPEAVELCRRVNNDLAAQIAENPDRFRGFATLPLYDPAAAAEELRRCVGDLGFVGALIAGSYDGLFLDDERFDPILTAAEAVDFPIYVHPGLPEAPVSQRYYAGSWPASVHMMFSGPAFGWHAEAGIHIVRLILSGALDRHPTLKLLSGHWGELAAFYLERLDETLGLLPTGLERAPSDYYRQQVWITPSGMYNQNQLNFMTAELGAQRIIYSEDFPYVVRDNVSTFLEQAGLSEADTHAIAHTNAEALLRI
# B7: 47 (protein, listed as Serratia odorifera)
# chain: MAKIICLEEHTLDKALVMASMPAALAQAPFLSDWGKTITDGNLPDRSRPQIEKNDLINVKGADIGRGRLDDMDEAGITMQVLSVGGFPHLISAAEGVDLNRAANDRLANAVNAHPDRFAAFATLPWAQPDAAEKELERAVKELGFKGALLNGRPSIHFLDHPDYDGLLARFNALGVPLYLHPGLPVRSVQQAYYSGFSDEVTARLSMFGWGWHHEAGIHLLRLILSGAFDKYPNLQVISGHWGEMLPFWLQRLDDSLPQAATGLRRTITQTFREQVYVTPSGMLTLPHFQFIYALLGAERILFSVDYPYQTLDGVKAFIQSLPVPEEAKEAIAFRNAERLFGLTS
# B8: 48 (protein, listed as Amycolatopsis mediterranei)
# chain: MASMKLYGLEEHFVTADVIEAWRRRDPGLAEPMMKWAVASDITPALLDVDGGRIAAMDDAGIDTTVLSLTTPGLQNLDAAEAVALQAPTNDLIAAAVRRHPGRFQGFATLATSAPAAAADELRRAVTELGLNGALVNANSRGRALDAPGFWDIYEAAEDLRAPVYLHPGVPVPAVTEAYYRGFGEPVNSMLATGAFGWHYDAGLTILRMIVAGVFDRFPGLQVILGHWGEVVLFYLDRVAAMDKLTALRRPIAEYFRSNIFITPGGISSHKYLRWSLETVGVERIMYASDYPFNTERAGSARRFLDTAPVDEAGRERIAYRNWEELIAGIRR
# B9: 40 (protein, listed as Rhodococcus jostii)
# chain: MAQGKIALEEHFAIPETLNDSAGFVPGTYWDELQARLLDIQDVRLKLMDEHNIETMILSLNAPAVQAIPERERAIDIARRANDVLAEECAKRPDRFRGFAALPLQDPDAAAEELRRCVTELGFVGALVNGFSQSATVDGGSTPLYYDLPRYRPFWAEVERLDVPFYLHPRNPLNQDARIYEGHPWLLGPTWAFAQETAVHALRLMASGLFDEHPGLRIVLGHMGEGIPAMLWRIDHRNAWVDVPPAYPAKRRMVDYFTENFFVTTSGNFRTQTLIDLLLELGSERVMFSTDWPFENINHAAEWFDAASISEADRLKIGRTNAATLFKLDR
# B10: 49 (protein, listed as Streptomyces sp.)
# chain: MAKIIALEEHFSDPAVAKAGAARARALSPGFAASYSPASGLPYSPSPEVLENLAEKRLADMDAGGITMQVLSGLGAQTVPADVAPALVAGSNDKAAAAVRAHPDRFAAFAALPTATPEAAVAELDRSVNELGFVGTLIMGRTEGEFLDAPRFEPILARAAALKVPVFLHPGVPPREITDSNYAAGLPTGIGTRLQTAAWGWHQETAVHFLHLVHSGVLDRYPDLQFILGHWGEMIPFYLDRVDEALPQRATGLDRSFHEYFRENVYLAPSGMWSQAQLRFCLETVPLERIVFAVDYPFIGNEGAVPFLEKAELPQADKRKIAHENAERLLGL
# B11: 50 (protein, listed as Streptomyces sp.)
# chain: MARIVTLEEHWTDPAVTAAGMPNLLDHVPGYAAAFDPDTGMPYPRHPELLEDLGAARIADMDRHGITTQVLSLVNTFLPADVAPRLTAAANDAMAAAVEAFPGRFAAFATLPTAVPGAAADELRRCVGELGFVGTMIMGRTDGEFLDQPRFDPILRAASDLSVPVYLHPAPPPVAVSEASYAGGLSPAVSAAFRLAAWGWHQETAVHLLHLVLAGVLDRYPGLQFVLGHWGEFIPFYLDRLDESMPRRMTGLDRTFREYFRDNVFITPSGMFSQAQLRYCADTVGTDRIIHSVDFPMLGNEGAVSFLTDSHLSREDQEKIAHGNADALLGLG
# B12: 45 (protein)
# chain: MANDDLAEVIAAHPDRFAGFAALPMRDPQAAAVELQRAVGTHGFCGAMINGLIEGRFLDDPAFAPLLSTAADLGVPLYLHPSFPPPQVAEIYFGGLAPVLGDLLATAGWGWHAETALHVLRLVATGVFDRLPELWVIVGHMGEMIPFALARIDTVLSPVAQLRQPVAQYFQTNVWFTTSGYTTFPPLQCALSTVGIDRLIFSVDYPYTDNTSARALLDTAPISPVDREKLAHGTVEALLRV
# modifications: Mycobacterium sp
# B13: 37 (protein, listed as Burkholderia gladioli)
# chain: MATFSNVKKIALEEHFAIAETIEDSAGFVPPDDWVELRGRLLDIQERRLAEMDRAGIELMVLSLNAPAVQAIRDPRQAVELARRANDYLAEQVARRPDRFRAFAALPMQAPEQAIREAERCVRELGFVGALVNGFSEAEDGAELYYDLPRYRPFWAALEALEVPFYLHPRNPLAGRAPIYDGHSWLMGPTWAFGQETAVHALRLMGSGLFDAHPRLQIILGHMGEGLPYSMWRVDNRNAWVSAKPNYPAEKPIAEYFRNNFWLTTSGNFRTQTLIDAMLEIGSDRILFSADWPFENMDHAADWFDHASISENDRIKIGRGNAERLLKLGR
# B14: 3 (protein, listed as Lactobacillus plantarum)
# chain: MAKLITVEEHFESAAVTAAMRQAVGNAVLPAVSPALRQYMRDNLPSPAIMQDTQHERLAFMAQYGIDMQVLSYGNSSPQNLSPEQAVPLSQLANDELAKAVVAHPDRYAGLAVLPVGDPQAAVAELNRAVTTLGLRGVLLKGNYQNKFFDEPFFLPIFEAAAALDVPVYFHPSFIPQAVTSHYFESNQWSDVVTGILSSAGYGWHMDVGIQVIRMIASGIFDKLPGLKLISGHWGELVPLFLERLDDELTTYTDLQYPFSTYYRHNVYVTPSGILSAPQLQFMLAEMGADHLMYSIDYPYKQPETSGSFLDIADLTDEQRAQIAFGTATTLFKL
# B15: 43 (protein, listed as Rhizobium leguminosarum)
# chain: MAQGKIALEEHFAIPETLQDSAGFVPGDYWTELSARLLDIQDKRLRLMDTHGIEKMILSLNAPAVQAIPDKAKAVEISRRANDFLAEQCVKNPNRFLGFAALPLQDPDAATQELQRCVTTMGFVGALVNGFSQEGDGTTPLYYDLPQYRPFWAEVEKLDVPFYLHPRNPLPQDSRIYAGHSWLMGPTWAFAQETAVHALRLMGSGLFDEHPALRIIVGHMGEGLPYMMWRIDNRNAWVKVEKSYPAKRPIADYFNENFYITTSGNFRTQSLIDAMLEIGADRILFSADWPFENVDHAANWFDSATISEADRLKIGRTNAVSLFKLDR
# Assay: 14C assay with IPTG-induced recombinant E. coli cells (14CO2 capture from [14C]-carboxyl-labeled dicamba)
# Conditions: IPTG-induced recombinant E. coli cells; [14C]-carboxyl-labeled dicamba; 14CO2 capture
row,Molecule,Dicamba Decarboxylase Activity
1,B1,High
2,B2,High
3,B3,No
4,B4,Low
5,B5,Low
6,B6,High
7,B7,High
8,B8,High
9,B9,Low
10,B10,High
11,B11,High
12,B12,No
13,B13,Low
14,B14,Low
15,B15,High

# Same assay, conditions: dicamba decarboxylation activity of the protein of the given SEQ ID NO
row,Molecule,Enzymatic Detection level
1,B1,High
2,B2,High
3,B3,No
4,B4,Low
5,B5,Low
6,B6,High
7,B7,High
8,B8,High
9,B9,Low
10,B10,High
11,B11,High
12,B12,No
13,B13,Low
14,B14,Low
15,B15,High
